How the values were obtained:
[1] = target: T1, Kap114pΔ(Y939) (S. cerevisiae, UniProt P53067 1-1004, ΔY939); test: ITC; MicroCal iTC200, 25 °C, 20 mM HEPES pH 7.4, 150 mM NaCl; high concentration: 50 µM wild type or mutant Kap114p in the sample cell, 500 µM wild type or mutant yTBPC in the syringe; triplicate; conditions: both partners purified
T1 construct: Kap114p, S. cerevisiae, full length with residue Y939 deleted; also called GST-Kap114p (Δ939); source: E. coli Rosetta, purified (GST resin, MonoQ, Superdex 200)
T1 sequence (looked up): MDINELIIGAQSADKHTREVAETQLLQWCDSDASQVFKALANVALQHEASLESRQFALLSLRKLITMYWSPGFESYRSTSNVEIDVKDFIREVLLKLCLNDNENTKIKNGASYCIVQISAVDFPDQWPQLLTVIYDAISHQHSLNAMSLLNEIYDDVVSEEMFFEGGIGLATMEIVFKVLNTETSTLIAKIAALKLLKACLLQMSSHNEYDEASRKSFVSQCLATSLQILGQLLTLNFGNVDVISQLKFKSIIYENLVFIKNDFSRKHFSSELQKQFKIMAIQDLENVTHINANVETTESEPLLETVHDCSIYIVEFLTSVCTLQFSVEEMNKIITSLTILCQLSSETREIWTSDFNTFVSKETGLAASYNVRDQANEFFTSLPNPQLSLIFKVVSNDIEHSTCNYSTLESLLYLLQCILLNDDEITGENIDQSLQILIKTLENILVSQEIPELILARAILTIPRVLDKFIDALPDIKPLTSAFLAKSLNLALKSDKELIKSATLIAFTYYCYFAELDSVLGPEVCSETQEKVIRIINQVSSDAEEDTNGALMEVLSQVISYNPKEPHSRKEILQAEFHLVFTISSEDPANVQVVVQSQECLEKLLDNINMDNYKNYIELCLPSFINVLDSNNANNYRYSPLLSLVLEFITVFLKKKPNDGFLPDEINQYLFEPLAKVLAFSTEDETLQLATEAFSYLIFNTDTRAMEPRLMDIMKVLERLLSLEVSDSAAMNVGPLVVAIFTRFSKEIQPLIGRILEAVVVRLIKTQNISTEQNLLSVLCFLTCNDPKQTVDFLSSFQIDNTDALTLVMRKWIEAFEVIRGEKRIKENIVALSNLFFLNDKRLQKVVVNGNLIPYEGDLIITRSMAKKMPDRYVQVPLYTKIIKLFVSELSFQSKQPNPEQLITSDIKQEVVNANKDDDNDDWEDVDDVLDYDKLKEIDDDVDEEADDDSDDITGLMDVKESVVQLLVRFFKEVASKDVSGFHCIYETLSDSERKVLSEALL

[2] = target: T2, Kap114pΔ(932-941) (S. cerevisiae, UniProt P53067 1-1004, Δ(932-941)); test: ITC; MicroCal iTC200, 25 °C, 20 mM HEPES pH 7.4, 150 mM NaCl; low concentration: 25 µM wild type or mutant Kap114p in the sample cell, 250 µM wild type or mutant yTBPC in the syringe; triplicate; conditions: both partners purified
T2 construct: also called GST-Kap114p (Δ932-941); source: E. coli Rosetta, purified (GST resin, MonoQ, Superdex 200)
T2 sequence (looked up): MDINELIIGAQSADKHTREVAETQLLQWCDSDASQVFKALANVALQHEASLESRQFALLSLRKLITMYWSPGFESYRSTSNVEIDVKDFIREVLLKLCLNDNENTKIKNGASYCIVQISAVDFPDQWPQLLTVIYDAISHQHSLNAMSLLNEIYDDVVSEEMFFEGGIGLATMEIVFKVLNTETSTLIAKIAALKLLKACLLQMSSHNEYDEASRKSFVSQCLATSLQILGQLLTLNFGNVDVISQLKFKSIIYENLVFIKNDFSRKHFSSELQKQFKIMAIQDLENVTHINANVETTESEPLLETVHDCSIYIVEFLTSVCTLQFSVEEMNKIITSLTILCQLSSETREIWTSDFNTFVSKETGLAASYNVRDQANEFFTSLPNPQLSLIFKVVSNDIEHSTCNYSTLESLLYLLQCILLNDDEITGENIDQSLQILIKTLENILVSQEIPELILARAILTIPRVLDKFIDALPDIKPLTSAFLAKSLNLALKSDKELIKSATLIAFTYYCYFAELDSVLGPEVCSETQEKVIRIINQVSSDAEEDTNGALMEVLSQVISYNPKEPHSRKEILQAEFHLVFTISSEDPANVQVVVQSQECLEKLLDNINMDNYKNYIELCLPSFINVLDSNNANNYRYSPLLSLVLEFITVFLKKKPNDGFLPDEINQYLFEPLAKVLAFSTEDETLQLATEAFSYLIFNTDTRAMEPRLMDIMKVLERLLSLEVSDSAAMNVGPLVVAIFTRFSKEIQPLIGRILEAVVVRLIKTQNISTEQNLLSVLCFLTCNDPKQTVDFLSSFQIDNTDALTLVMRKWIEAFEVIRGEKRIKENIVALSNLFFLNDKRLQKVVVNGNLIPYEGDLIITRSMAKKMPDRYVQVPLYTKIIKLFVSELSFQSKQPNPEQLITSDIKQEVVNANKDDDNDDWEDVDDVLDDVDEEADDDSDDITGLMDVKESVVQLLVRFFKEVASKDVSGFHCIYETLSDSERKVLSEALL

Kd [1]: 37.1 nM | Kd [2]: 79.9 nM
B1: yTBP^C wild type (core domain of yeast TATA-box binding protein, a.a. 61-240) (domain or fragment, S. cerevisiae, UniProt P13393 61-240, looked up)
chain: SGIVPTLQNIVATVTLGCRLDLKTVALHARNAEYNPKRFAAVIMRIREPKTTALIFASGKMVVTGAKSEDDSKLASRKYARIIQKIGFAAKFTDFKIQNIVGSCDVKFPIRLEGLAFSHGTFSSYEPELFPGLIYRMVKPKIVLLIFVSGKIVLTGAKQREEIYQAFEAIYPVLSEFRKM
notes: modified pET28a, 6xHis tag followed by a PreScission site; also called yTBPC WT; His-yTBP (61-240); source: E. coli Rosetta, purified (Ni-NTA, HiTrap SP, Superdex 75); not shown: His6, N-terminal, cleaved

— paper PMC10491584, “Structural convergence endows nuclear transport receptor Kap114p with a transcriptional repressor function toward TATA-binding protein” (Nature Communications, 2023)
